Measurements: US20050080013A1 (Pfizer, published 2005)
Non-standard residues stand in square brackets, D forms with d. No end group written: not given here. Aib = CC(C)(N)C(=O)O

T1: lecithin:cholesterol acyltransferase (LCAT), purified from human plasma (human, UniProt P04180 25-440)
T1 sequence (looked up): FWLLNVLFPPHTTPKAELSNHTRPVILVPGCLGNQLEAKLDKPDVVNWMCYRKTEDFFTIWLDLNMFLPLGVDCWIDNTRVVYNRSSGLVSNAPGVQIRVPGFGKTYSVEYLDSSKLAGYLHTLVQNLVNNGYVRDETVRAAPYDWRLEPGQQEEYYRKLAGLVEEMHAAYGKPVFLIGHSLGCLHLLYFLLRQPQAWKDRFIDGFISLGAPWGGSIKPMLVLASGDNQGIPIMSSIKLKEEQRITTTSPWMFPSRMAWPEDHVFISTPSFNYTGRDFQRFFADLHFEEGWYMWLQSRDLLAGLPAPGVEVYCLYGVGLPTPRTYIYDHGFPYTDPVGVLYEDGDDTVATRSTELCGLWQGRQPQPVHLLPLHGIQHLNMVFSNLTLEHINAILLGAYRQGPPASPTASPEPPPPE

B1: peptide 100 (peptide)
peptide: [dP][dV][dL][dD][dL][dF][dR][dE][dL][dL][dN][dE][dL][dL][dE][dA][dL][dK][dQ][dK][dL][dK]
B2: peptide 96 (peptide)
peptide: [dP][dV][dL][dD][dL][dF][dR][dE][dL][dL][dN][dE][Aib][dL][dE][dA][dL][dK][dQ][dK][dL][dK]
B3: peptide 95 (peptide)
peptide: PVLDLFRELLNL[Aib]LEALKQKLK
B4: peptide 94 (peptide)
peptide: PVLDEFREKLNEALEALKQKLK
B5: peptide 97 (peptide)
peptide: PVLDLFRELLNELLE
B6: peptide 93 (peptide)
peptide: PVLDEFREKLNE[Aib]LKALKQKLK
B7: peptide 101 (peptide)
peptide: PVLDLFRELLNW[Aib]LEALKQKLK
B8: peptide 99 (peptide)
peptide: KLKQKLAELLENLLERFLDLVP
B9: peptide 102 (peptide)
peptide: PVLDLFRELLNL[Aib]LEALKEKLK
B10: peptide 98 (peptide)
peptide: PVLDLFRELLNEELEALKQKLK

Molecular target: T1, lecithin:cholesterol acyltransferase …
Experiment: cell-based or functional assay

ACTIVITY (%) LCAT, 4%:
B5

ACTIVITY (%) LCAT, 2%:
B1
B7
B8
B9
B10

ACTIVITY (%) LCAT, 5%:
B2
B3
B4
B6
